*1 amine or outer side, *2 acyl side, *3 side chain or, on linkers, in order; H or OH if unused. Bridges are numbered along the chain shown (N, C = ends). The star is where a group is joined. X1 = (S)‑4‑Carboxy‑4‑(17-carboxyheptadecanoylamino)butyryl, O=C(O)CCCCCCCCCCCCCCCCC(=O)N[C@@H](CCC(=O)*)C(=O)O; C20 diacid = O=C(O)CCCCCCCCCCCCCCCCCCC(=O)*; γGlu = O=C(O)[C@H](CCC(=O)[*:2])N[*:1]; AEEA = NCCOCCOCC(=O)O
T1: Amylin 3(a) receptor (human calcitonin receptor (CTa) with RAMP-3) (human, UniProt P30988 25-474; O60896 24-148, limits assumed)
T1 sequence (looked up) 1: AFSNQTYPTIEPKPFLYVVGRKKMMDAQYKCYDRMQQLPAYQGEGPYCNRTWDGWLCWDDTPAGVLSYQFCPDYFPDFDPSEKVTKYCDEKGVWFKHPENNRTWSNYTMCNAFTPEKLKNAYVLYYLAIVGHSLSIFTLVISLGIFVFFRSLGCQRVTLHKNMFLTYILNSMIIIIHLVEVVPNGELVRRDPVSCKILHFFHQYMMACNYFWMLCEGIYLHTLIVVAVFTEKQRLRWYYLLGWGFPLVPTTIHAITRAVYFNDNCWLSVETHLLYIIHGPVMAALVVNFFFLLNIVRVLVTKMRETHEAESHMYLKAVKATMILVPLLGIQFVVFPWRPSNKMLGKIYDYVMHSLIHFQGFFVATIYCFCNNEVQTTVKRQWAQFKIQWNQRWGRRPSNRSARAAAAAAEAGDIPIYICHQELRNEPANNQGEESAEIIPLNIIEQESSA
T1 sequence (looked up) 2: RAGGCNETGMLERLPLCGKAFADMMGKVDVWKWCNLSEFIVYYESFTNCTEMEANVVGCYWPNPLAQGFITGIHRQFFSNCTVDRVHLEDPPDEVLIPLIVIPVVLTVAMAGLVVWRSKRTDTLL

B1: N-alpha-[2-(2-{2-[4-(S)-Carboxy-4-(19-carboxynonadecanoylamino)butyrylamino]ethoxy}ethoxy)acetyl]-His-His-[Arg1,Arg17]-pramlintide (peptide)
peptide: {C20 diacid-γGlu-AEEA}-HHRCNTATCATQRLANFLRHSSNNFGPILPPTNVGSNTY-NH2
modifications: disulfide 4-9
SMILES: CC[C@H](C)[C@H](NC(=O)[C@@H]1CCCN1C(=O)CNC(=O)[C@H](Cc1ccccc1)NC(=O)[C@H](CC(N)=O)NC(=O)[C@H](CC(N)=O)NC(=O)[C@H](CO)NC(=O)[C@H](CO)NC(=O)[C@H](Cc1c[nH]cn1)NC(=O)[C@H](CCCNC(=N)N)NC(=O)[C@H](CC(C)C)NC(=O)[C@H](Cc1ccccc1)NC(=O)[C@H](CC(N)=O)NC(=O)[C@H](C)NC(=O)[C@H](CC(C)C)NC(=O)[C@H](CCCNC(=N)N)NC(=O)[C@H](CCC(N)=O)NC(=O)[C@@H](NC(=O)[C@H](C)NC(=O)[C@@H]1CSSC[C@H](NC(=O)[C@H](CCCNC(=N)N)NC(=O)[C@H](Cc2c[nH]cn2)NC(=O)[C@H](Cc2c[nH]cn2)NC(=O)COCCOCCNC(=O)CC[C@H](NC(=O)CCCCCCCCCCCCCCCCCCC(=O)O)C(=O)O)C(=O)N[C@@H](CC(N)=O)C(=O)N[C@@H]([C@@H](C)O)C(=O)N[C@@H](C)C(=O)N[C@@H]([C@@H](C)O)C(=O)N1)[C@@H](C)O)C(=O)N[C@@H](CC(C)C)C(=O)N1CCC[C@H]1C(=O)N1CCC[C@H]1C(=O)N[C@H](C(=O)N[C@@H](CC(N)=O)C(=O)N[C@H](C(=O)NCC(=O)N[C@@H](CO)C(=O)N[C@@H](CC(N)=O)C(=O)N[C@H](C(=O)N[C@@H](Cc1ccc(O)cc1)C(N)=O)[C@@H](C)O)C(C)C)[C@@H](C)O
B2: N-alpha-[2-(2-{2-[4-(S)-Carboxy-4-(19-carboxynonadecanoylamino)butyrylamino]ethoxy}ethoxy)acetyl]-His-His-[Arg1His17,Gln21]-pramlintide (peptide)
peptide: {C20 diacid-γGlu-AEEA}-HHRCNTATCATQRLANFLHHSSQNFGPILPPTNVGSNTY-NH2
modifications: disulfide 4-9
SMILES: CC[C@H](C)[C@H](NC(=O)[C@@H]1CCCN1C(=O)CNC(=O)[C@H](Cc1ccccc1)NC(=O)[C@H](CC(N)=O)NC(=O)[C@H](CCC(N)=O)NC(=O)[C@H](CO)NC(=O)[C@H](CO)NC(=O)[C@H](Cc1c[nH]cn1)NC(=O)[C@H](Cc1c[nH]cn1)NC(=O)[C@H](CC(C)C)NC(=O)[C@H](Cc1ccccc1)NC(=O)[C@H](CC(N)=O)NC(=O)[C@H](C)NC(=O)[C@H](CC(C)C)NC(=O)[C@H](CCCNC(=N)N)NC(=O)[C@H](CCC(N)=O)NC(=O)[C@@H](NC(=O)[C@H](C)NC(=O)[C@@H]1CSSC[C@H](NC(=O)[C@H](CCCNC(=N)N)NC(=O)[C@H](Cc2c[nH]cn2)NC(=O)[C@H](Cc2c[nH]cn2)NC(=O)COCCOCCNC(=O)CC[C@H](NC(=O)CCCCCCCCCCCCCCCCCCC(=O)O)C(=O)O)C(=O)N[C@@H](CC(N)=O)C(=O)N[C@@H]([C@@H](C)O)C(=O)N[C@@H](C)C(=O)N[C@@H]([C@@H](C)O)C(=O)N1)[C@@H](C)O)C(=O)N[C@@H](CC(C)C)C(=O)N1CCC[C@H]1C(=O)N1CCC[C@H]1C(=O)N[C@H](C(=O)N[C@@H](CC(N)=O)C(=O)N[C@H](C(=O)NCC(=O)N[C@@H](CO)C(=O)N[C@@H](CC(N)=O)C(=O)N[C@H](C(=O)N[C@@H](Cc1ccc(O)cc1)C(N)=O)[C@@H](C)O)C(C)C)[C@@H](C)O
B3: N-alpha-[2-(2-{2-[4-(S)-Carboxy-4-(19-carboxynonadecanoylamino)butyrylamino]ethoxy}ethoxy)acetyl]-His-His-[Arg1,His17]-pramlintide (peptide)
peptide: {C20 diacid-γGlu-AEEA}-HHRCNTATCATQRLANFLHHSSNNFGPILPPTNVGSNTY-NH2
modifications: disulfide 4-9
SMILES: CC[C@H](C)[C@H](NC(=O)[C@@H]1CCCN1C(=O)CNC(=O)[C@H](Cc1ccccc1)NC(=O)[C@H](CC(N)=O)NC(=O)[C@H](CC(N)=O)NC(=O)[C@H](CO)NC(=O)[C@H](CO)NC(=O)[C@H](Cc1c[nH]cn1)NC(=O)[C@H](Cc1c[nH]cn1)NC(=O)[C@H](CC(C)C)NC(=O)[C@H](Cc1ccccc1)NC(=O)[C@H](CC(N)=O)NC(=O)[C@H](C)NC(=O)[C@H](CC(C)C)NC(=O)[C@H](CCCNC(=N)N)NC(=O)[C@H](CCC(N)=O)NC(=O)[C@@H](NC(=O)[C@H](C)NC(=O)[C@@H]1CSSC[C@H](NC(=O)[C@H](CCCNC(=N)N)NC(=O)[C@H](Cc2c[nH]cn2)NC(=O)[C@H](Cc2c[nH]cn2)NC(=O)COCCOCCNC(=O)CC[C@H](NC(=O)CCCCCCCCCCCCCCCCCCC(=O)O)C(=O)O)C(=O)N[C@@H](CC(N)=O)C(=O)N[C@@H]([C@@H](C)O)C(=O)N[C@@H](C)C(=O)N[C@@H]([C@@H](C)O)C(=O)N1)[C@@H](C)O)C(=O)N[C@@H](CC(C)C)C(=O)N1CCC[C@H]1C(=O)N1CCC[C@H]1C(=O)N[C@H](C(=O)N[C@@H](CC(N)=O)C(=O)N[C@H](C(=O)NCC(=O)N[C@@H](CO)C(=O)N[C@@H](CC(N)=O)C(=O)N[C@H](C(=O)N[C@@H](Cc1ccc(O)cc1)C(N)=O)[C@@H](C)O)C(C)C)[C@@H](C)O
B4: N-alpha-[(S)-4-Carboxy-4-(17-carboxyheptadecanoylamino)butyryl]-His-His-[His1,His17]-pramlintide (peptide)
peptide: X1-HHHCNTATCATQRLANFLHHSSNNFGPILPPTNVGSNTY-NH2
modifications: disulfide 4-9
SMILES: CC[C@H](C)[C@H](NC(=O)[C@@H]1CCCN1C(=O)CNC(=O)[C@H](Cc1ccccc1)NC(=O)[C@H](CC(N)=O)NC(=O)[C@H](CC(N)=O)NC(=O)[C@H](CO)NC(=O)[C@H](CO)NC(=O)[C@H](Cc1c[nH]cn1)NC(=O)[C@H](Cc1c[nH]cn1)NC(=O)[C@H](CC(C)C)NC(=O)[C@H](Cc1ccccc1)NC(=O)[C@H](CC(N)=O)NC(=O)[C@H](C)NC(=O)[C@H](CC(C)C)NC(=O)[C@H](CCCNC(=N)N)NC(=O)[C@H](CCC(N)=O)NC(=O)[C@@H](NC(=O)[C@H](C)NC(=O)[C@@H]1CSSC[C@H](NC(=O)[C@H](Cc2c[nH]cn2)NC(=O)[C@H](Cc2c[nH]cn2)NC(=O)[C@H](Cc2c[nH]cn2)NC(=O)CC[C@H](NC(=O)CCCCCCCCCCCCCCCCC(=O)O)C(=O)O)C(=O)N[C@@H](CC(N)=O)C(=O)N[C@@H]([C@@H](C)O)C(=O)N[C@@H](C)C(=O)N[C@@H]([C@@H](C)O)C(=O)N1)[C@@H](C)O)C(=O)N[C@@H](CC(C)C)C(=O)N1CCC[C@H]1C(=O)N1CCC[C@H]1C(=O)N[C@H](C(=O)N[C@@H](CC(N)=O)C(=O)N[C@H](C(=O)NCC(=O)N[C@@H](CO)C(=O)N[C@@H](CC(N)=O)C(=O)N[C@H](C(=O)N[C@@H](Cc1ccc(O)cc1)C(N)=O)[C@@H](C)O)C(C)C)[C@@H](C)O
B5: N-alpha-[(S)-4-Carboxy-4-(19-carboxynonadecanoylamino)butyryl]-[Arg1,His17]-pramlintide (peptide)
peptide: {C20 diacid-γGlu}-RCNTATCATQRLANFLHHSSNNFGPILPPTNVGSNTY-NH2
modifications: disulfide 2-7
SMILES: CC[C@H](C)[C@H](NC(=O)[C@@H]1CCCN1C(=O)CNC(=O)[C@H](Cc1ccccc1)NC(=O)[C@H](CC(N)=O)NC(=O)[C@H](CC(N)=O)NC(=O)[C@H](CO)NC(=O)[C@H](CO)NC(=O)[C@H](Cc1c[nH]cn1)NC(=O)[C@H](Cc1c[nH]cn1)NC(=O)[C@H](CC(C)C)NC(=O)[C@H](Cc1ccccc1)NC(=O)[C@H](CC(N)=O)NC(=O)[C@H](C)NC(=O)[C@H](CC(C)C)NC(=O)[C@H](CCCNC(=N)N)NC(=O)[C@H](CCC(N)=O)NC(=O)[C@@H](NC(=O)[C@H](C)NC(=O)[C@@H]1CSSC[C@H](NC(=O)[C@H](CCCNC(=N)N)NC(=O)CC[C@H](NC(=O)CCCCCCCCCCCCCCCCCCC(=O)O)C(=O)O)C(=O)N[C@@H](CC(N)=O)C(=O)N[C@@H]([C@@H](C)O)C(=O)N[C@@H](C)C(=O)N[C@@H]([C@@H](C)O)C(=O)N1)[C@@H](C)O)C(=O)N[C@@H](CC(C)C)C(=O)N1CCC[C@H]1C(=O)N1CCC[C@H]1C(=O)N[C@H](C(=O)N[C@@H](CC(N)=O)C(=O)N[C@H](C(=O)NCC(=O)N[C@@H](CO)C(=O)N[C@@H](CC(N)=O)C(=O)N[C@H](C(=O)N[C@@H](Cc1ccc(O)cc1)C(N)=O)[C@@H](C)O)C(C)C)[C@@H](C)O

Molecular target: T1, Amylin 3(a) receptor (human calcitonin …)
Assay: cell-based or functional assay

In order of rising “Potency Luciferase” value:
1. B4  50 pmol/L
2. B2  60 pmol/L
3. B3  90 pmol/L
4. B1  300 pmol/L
5. B5  300 pmol/L
